In PMC10992996, “Human CRB1 and CRB2 form homo- and heteromeric protein complexes in the retina” (Life Science Alliance, 2024):

Target: T1, CRB1-FLAG p.C480R (human, UniProt P82279 26-1406, p.C480R)
T1 construct: Crumbs homolog 1, canonical form, human, cDNA NM_202153 as printed, with a patient missense mutation; Made by site-directed mutagenesis of m1; also called CRB1 p.C480R; CRB1-FLAG MT; source: HEK293T, transfected, in lysate; not shown: Strep-Strep-FLAG, N-terminal, kept
T1 sequence (looked up): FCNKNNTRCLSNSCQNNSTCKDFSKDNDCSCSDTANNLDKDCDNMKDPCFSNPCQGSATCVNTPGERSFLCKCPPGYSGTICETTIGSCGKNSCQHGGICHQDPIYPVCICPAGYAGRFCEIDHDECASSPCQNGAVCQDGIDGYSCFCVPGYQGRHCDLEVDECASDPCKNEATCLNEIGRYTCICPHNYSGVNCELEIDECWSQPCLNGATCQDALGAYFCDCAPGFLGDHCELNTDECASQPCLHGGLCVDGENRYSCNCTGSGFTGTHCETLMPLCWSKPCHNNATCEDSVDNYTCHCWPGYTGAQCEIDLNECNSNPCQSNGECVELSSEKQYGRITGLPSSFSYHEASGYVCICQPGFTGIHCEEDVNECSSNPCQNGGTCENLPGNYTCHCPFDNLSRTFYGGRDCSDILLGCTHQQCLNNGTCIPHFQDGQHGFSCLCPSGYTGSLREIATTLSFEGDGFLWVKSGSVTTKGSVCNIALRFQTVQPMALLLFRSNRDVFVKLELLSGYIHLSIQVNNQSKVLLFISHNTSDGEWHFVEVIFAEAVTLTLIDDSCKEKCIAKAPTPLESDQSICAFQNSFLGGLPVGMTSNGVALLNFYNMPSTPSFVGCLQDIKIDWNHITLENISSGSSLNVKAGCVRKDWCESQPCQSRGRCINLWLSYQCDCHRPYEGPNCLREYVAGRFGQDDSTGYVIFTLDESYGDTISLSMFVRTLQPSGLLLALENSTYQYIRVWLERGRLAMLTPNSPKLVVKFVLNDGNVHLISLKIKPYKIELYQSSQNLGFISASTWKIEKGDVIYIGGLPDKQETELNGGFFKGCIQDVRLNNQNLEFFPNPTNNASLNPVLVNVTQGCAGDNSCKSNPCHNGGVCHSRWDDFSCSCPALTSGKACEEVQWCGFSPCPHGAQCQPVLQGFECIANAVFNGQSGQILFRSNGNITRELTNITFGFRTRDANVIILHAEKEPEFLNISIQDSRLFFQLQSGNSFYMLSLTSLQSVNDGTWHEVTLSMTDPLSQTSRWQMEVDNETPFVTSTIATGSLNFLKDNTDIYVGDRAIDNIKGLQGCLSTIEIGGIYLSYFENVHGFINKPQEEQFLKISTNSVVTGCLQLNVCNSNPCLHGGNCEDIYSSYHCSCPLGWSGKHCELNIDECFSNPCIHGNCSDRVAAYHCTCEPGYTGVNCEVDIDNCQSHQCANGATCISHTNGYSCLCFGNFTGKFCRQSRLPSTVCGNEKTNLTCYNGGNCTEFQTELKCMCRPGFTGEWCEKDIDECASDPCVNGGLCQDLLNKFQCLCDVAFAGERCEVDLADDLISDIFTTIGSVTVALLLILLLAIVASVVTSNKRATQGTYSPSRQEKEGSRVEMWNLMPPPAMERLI
Experiment: co-IP; HEK293T cells co-transfected pairwise with a FLAG and an HA construct, 48 h; lysis in TBS (30 mM Tris-HCl pH 7.4, 150 mM NaCl) with 0.5% Nonidet P40; FLAG-IP on ANTI-FLAG M2 Affinity Gel 60-90 min at 4°C, elution with FLAG peptide; Western blot with HA and FLAG antibodies; for mutants HA/FLAG signal in eluates relative to WT, three biological replicates
Conditions: partners not purified

B1: Human canonical CRB2 (Crumbs homolog 2) (natural protein)
chain: not shown
notes: Crumbs homolog 2, human, cDNA NM_173689; Stood as bait (FLAG copy) and as prey (HA copy) in the pairwise co-IP matrix; each copy carries only one of the two tags; The FLAG copy was the bait of the mass spectrometry pull-downs; also called CRB2-FLAG; CRB2-HA; source: HEK293T, transfected, in lysate (co-IP); HEK293T, transfected, FLAG-IP on beads, washed and purified with 0.01% SDS (retina …)
- percent of the interaction capacity relative to CRB1 WT: 96%
